Consider two molecules from US7125658B2, “Small protein that interacts with a ribonucleotide reductase subunit and uses thereof” (The Trustees of Columbia University in the City of New York, priority 1998, dated 2006).

In test [1] the target is T1, Recombinant yeast Rnr1 protein (large subunit of ribonucleotide reductase) (yeast (Saccharomyces cerevisiae), UniProt P21524 1-888).
T1 construct: It is in monomer/dimer/tetramer equilibrium depending on dTTP; also called yeast R1 protein
T1 sequence (looked up): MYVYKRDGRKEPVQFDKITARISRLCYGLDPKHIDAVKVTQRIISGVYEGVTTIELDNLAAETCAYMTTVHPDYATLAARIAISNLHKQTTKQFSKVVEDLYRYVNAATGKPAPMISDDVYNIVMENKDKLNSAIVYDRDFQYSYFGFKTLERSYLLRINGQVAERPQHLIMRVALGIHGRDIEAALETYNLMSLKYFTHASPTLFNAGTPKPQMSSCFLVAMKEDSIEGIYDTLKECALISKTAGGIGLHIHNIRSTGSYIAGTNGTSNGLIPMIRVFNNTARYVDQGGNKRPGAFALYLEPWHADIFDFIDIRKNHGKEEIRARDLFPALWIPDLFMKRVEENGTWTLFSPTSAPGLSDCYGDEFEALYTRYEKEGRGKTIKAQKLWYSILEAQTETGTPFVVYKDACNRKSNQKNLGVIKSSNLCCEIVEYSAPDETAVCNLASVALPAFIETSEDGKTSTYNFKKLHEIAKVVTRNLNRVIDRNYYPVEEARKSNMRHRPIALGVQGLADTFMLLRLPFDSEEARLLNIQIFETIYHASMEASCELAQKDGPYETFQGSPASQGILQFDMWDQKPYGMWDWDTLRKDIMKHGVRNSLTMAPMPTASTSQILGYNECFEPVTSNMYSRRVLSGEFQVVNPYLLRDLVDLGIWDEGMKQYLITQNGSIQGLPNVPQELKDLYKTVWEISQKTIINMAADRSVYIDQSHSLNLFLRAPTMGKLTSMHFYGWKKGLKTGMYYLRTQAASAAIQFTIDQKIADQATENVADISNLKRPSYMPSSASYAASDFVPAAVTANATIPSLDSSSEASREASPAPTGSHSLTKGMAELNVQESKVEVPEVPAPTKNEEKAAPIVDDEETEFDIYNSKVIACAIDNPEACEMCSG
The experiment in a line: BIAcore SPR, calculated from rate constants; calculated from the rate constants, not the equilibrium fit. Here is the method:
BIAcore biosensor analysis. The interaction between Sml1p and either yeast Rnr1p or mouse R1 protein was studied by biosensor analysis using the BIAcore method (Biacore AB). The Sml1 protein was prepared in 10 mM sodium acetate, pH 5.2, at a concentration of 0.44 mg/ml; it was then immobilized on the dextran layer of the sensor chip as described previously for the mouse R2 protein (17). The ligand proteins were equilibrated with running buffer (10 mM Hepes-KOH, pH 7.4, 200 mM potassium acetate, 1 mM EDTA, 5 mM magnesium acetate and 0.05% Surfactant P20 (BIAcore). The interactions were studied at a constant temperature of 22° C. and a constant flow of 5 μl/min. Kinetics for the interaction of Sml1p with yeast Rnr1p was determined by allowing the immobilized Sml1p to interact with increasing concentrations of Rnr1p (18). The resonance unit (RU) is proportional to the mass, and 1 RU corresponds to a surface concentration of 1 pg of protein/mm² of the 100 nm thick dextran layer (19).
In control experiments, where the same series of Rnr1p solutions passed a sensor chip without immobilized Sml1p, a "bulk effect" gave a response of only about 60 RU. […] Calculating the equilibrium dissociation constant from these rate constants gave a K_0 of about 0.25 µM, which is close to the directly determined K_0.

Test [2] deals with T1, Recombinant yeast Rnr1 protein (large …). The experiment in a line: cell-based or functional assay.
The target in the next test is T2, yeast Rnr1p (Saccharomyces cerevisiae, UniProt P21524).
T2 construct: made in house; host or cells: E. coli BL21 (DE3), pET3a
T2 sequence (P21524 1-888): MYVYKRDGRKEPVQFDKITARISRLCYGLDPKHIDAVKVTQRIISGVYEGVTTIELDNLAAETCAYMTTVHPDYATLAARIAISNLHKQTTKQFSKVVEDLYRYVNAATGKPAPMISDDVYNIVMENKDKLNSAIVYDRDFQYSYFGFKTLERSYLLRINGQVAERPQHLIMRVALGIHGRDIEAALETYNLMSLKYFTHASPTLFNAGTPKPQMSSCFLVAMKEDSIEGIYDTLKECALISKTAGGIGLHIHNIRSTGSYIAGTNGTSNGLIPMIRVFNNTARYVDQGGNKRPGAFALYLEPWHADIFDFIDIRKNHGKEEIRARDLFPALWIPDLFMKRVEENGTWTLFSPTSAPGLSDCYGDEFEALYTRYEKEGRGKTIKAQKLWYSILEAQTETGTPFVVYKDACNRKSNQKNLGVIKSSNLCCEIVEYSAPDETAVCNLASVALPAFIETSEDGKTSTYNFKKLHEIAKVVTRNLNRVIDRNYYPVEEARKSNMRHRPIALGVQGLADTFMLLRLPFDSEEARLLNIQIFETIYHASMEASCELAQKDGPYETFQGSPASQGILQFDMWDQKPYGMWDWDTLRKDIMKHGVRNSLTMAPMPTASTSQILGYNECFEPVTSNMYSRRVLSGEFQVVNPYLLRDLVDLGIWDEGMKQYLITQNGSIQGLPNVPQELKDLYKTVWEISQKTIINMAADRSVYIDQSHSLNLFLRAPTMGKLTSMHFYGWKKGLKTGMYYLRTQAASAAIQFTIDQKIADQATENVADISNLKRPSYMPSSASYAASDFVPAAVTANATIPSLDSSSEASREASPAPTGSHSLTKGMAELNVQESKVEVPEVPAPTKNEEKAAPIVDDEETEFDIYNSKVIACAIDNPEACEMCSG
Nature of the test: sucrose gradient centrifugation of Rnr1p with Sml1p. It is filed as binding. Particulars: 500 μg Rnr1p, 90 μg Sml1 protein, 0.1 mM dTTP. As to the method: FIG. 11 Sucrose gradient centrifugation of yeast Rnr1p in the absence or in the presence of dTTP, with or without Sml1p. Sedimentation (from the right to the left) was performed as described in Materials and Methods. Catalase (s20,w=11.4 S) sedimented in fraction 14 (arrow). Thick line, Rnr1 protein sedimented alone without dTTP or Sml1p. The two peaks represent the dimer (fraction 21) and monomer (fraction 25) positions in the gradient. Hatched line, Rnr1p sedimented in the presence of dTTP. Most of the material now sedimented as tetramers (fraction 5) or dimers (fraction 21). Note that the small peak sedimenting at fraction 26 represents an impurity in the Rnr1p preparation (the band just below the R1 band in the gel insert). The sedimentation of this material is not affected by dTTP. […]
Sucrose gradient centrifugation. […] Aliquots of each fraction were removed for spectrophotometric assay of catalase activity (20); protein concentration as determined by the Bradford method (21); or SDS-PAGE analysis.
Interaction between yeast Rnr1 protein and Sml1 protein assayed by sucrose gradient centrifugation. […] To test if Sml1p binding to the Rnr1p might interfere with Rnr1p dimer formation and thereby inhibit RNR activity, we preincubated Rnr1p and Sml1p in the presence of the allosteric effector dTTP; we then analyzed the mixture on a sucrose gradient (FIG. 11). […]

For orientation: Kd means the constant that tells how readily two partners part at equilibrium.

B1: Recombinant yeast Sml1 protein (other)
chain: MQNSQDYFYAQNRCQQQQAPSTLRTVTMAEFRRVPLPPMAEVPMLSTQNSMGSSASASASSLEMWEKDLEERLNSIDHDMNNNKFGSGELKSMFNQGKVEEMDF
notes: Immobilized on the BIAcore chip in the biosensor experiments; also called YML058W product
For the molecule B1, the dissociation constant (Kd) in test [1] is around 250 nM. Also, the “efficiency in inhibiting yeast RNR activity relative to the Sml1p C terminal nonapeptide, molar basis” value in test [2] was around 200 times.

B2: Sml1p: 104 amino acid yeast protein encoded by YML058w (SML1) that binds Rnr1 and inhibits ribonucleotide reductase; recombinant, expressed in E. coli (protein)
chain: MQNSQDYFYAQNRCQQQQAPSTLRTVTMAEFRRVPLPPMAEVPMLSTQNSMGSSASASASSLEMWEKDLEERLNSIDHDMNNNKFGSGELKSMFNQGKVEEMDF
In the case of B2, the “effect on Rnr1p monomer/dimer equilibrium” value with yeast Rnr1p was “did not influence the monomer/dimer equilibrium”.
